According to article PMC9584430, “ATP hydrolytic activity of purified Spf1p correlate with micellar lipid fluidity and is dependent on conserved residues in transmembrane helix M1” (PLoS ONE, 2022):

T1: Spf1p (Saccharomyces cerevisiae, UniProt P39986)
T1 construct: gene SPF1; full length with C-terminal FLAG-RGS10His tag; expressed in spf1-deleted yeast (BY4741 background), purified, re-lipidated in mixed yeast polar lipid/detergent micelles; persistent dimer seen on SDS-PAGE
T1 sequence (P39986 1-1215): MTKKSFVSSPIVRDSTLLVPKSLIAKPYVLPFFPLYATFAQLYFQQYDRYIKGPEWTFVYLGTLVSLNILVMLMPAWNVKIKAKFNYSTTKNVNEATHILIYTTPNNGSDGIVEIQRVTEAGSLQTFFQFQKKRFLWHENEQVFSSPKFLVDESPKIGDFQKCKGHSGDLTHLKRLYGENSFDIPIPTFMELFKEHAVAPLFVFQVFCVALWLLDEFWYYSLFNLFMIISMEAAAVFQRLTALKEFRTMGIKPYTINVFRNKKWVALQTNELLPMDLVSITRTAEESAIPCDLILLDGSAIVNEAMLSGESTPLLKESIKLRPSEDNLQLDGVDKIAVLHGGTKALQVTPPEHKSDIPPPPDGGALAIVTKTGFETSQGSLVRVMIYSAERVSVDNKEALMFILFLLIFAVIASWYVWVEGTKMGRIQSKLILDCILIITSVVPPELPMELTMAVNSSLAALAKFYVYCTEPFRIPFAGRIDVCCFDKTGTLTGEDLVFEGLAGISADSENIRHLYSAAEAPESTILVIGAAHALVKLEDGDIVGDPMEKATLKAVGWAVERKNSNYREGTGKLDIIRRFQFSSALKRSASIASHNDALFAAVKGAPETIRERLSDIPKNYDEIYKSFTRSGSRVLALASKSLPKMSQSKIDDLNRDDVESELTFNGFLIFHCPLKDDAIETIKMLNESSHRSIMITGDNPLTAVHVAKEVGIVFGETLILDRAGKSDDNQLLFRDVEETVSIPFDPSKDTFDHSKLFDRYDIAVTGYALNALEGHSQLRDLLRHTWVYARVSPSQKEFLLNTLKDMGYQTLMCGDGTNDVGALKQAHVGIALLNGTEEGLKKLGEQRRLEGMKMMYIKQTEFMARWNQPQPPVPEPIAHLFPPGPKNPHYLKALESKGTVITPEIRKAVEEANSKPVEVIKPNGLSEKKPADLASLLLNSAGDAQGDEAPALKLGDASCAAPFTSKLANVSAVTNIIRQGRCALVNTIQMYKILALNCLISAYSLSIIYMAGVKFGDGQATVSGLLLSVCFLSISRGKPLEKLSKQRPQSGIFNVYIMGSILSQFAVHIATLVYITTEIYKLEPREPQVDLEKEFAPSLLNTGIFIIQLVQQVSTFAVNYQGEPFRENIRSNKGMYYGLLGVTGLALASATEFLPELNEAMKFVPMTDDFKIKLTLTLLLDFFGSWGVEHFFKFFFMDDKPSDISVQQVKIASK

B1: Saccharomyces cerevisiae P5A ATPase Spf1p (enzyme, UniProt P39986 1-1215, looked up)
chain: MTKKSFVSSPIVRDSTLLVPKSLIAKPYVLPFFPLYATFAQLYFQQYDRYIKGPEWTFVYLGTLVSLNILVMLMPAWNVKIKAKFNYSTTKNVNEATHILIYTTPNNGSDGIVEIQRVTEAGSLQTFFQFQKKRFLWHENEQVFSSPKFLVDESPKIGDFQKCKGHSGDLTHLKRLYGENSFDIPIPTFMELFKEHAVAPLFVFQVFCVALWLLDEFWYYSLFNLFMIISMEAAAVFQRLTALKEFRTMGIKPYTINVFRNKKWVALQTNELLPMDLVSITRTAEESAIPCDLILLDGSAIVNEAMLSGESTPLLKESIKLRPSEDNLQLDGVDKIAVLHGGTKALQVTPPEHKSDIPPPPDGGALAIVTKTGFETSQGSLVRVMIYSAERVSVDNKEALMFILFLLIFAVIASWYVWVEGTKMGRIQSKLILDCILIITSVVPPELPMELTMAVNSSLAALAKFYVYCTEPFRIPFAGRIDVCCFDKTGTLTGEDLVFEGLAGISADSENIRHLYSAAEAPESTILVIGAAHALVKLEDGDIVGDPMEKATLKAVGWAVERKNSNYREGTGKLDIIRRFQFSSALKRSASIASHNDALFAAVKGAPETIRERLSDIPKNYDEIYKSFTRSGSRVLALASKSLPKMSQSKIDDLNRDDVESELTFNGFLIFHCPLKDDAIETIKMLNESSHRSIMITGDNPLTAVHVAKEVGIVFGETLILDRAGKSDDNQLLFRDVEETVSIPFDPSKDTFDHSKLFDRYDIAVTGYALNALEGHSQLRDLLRHTWVYARVSPSQKEFLLNTLKDMGYQTLMCGDGTNDVGALKQAHVGIALLNGTEEGLKKLGEQRRLEGMKMMYIKQTEFMARWNQPQPPVPEPIAHLFPPGPKNPHYLKALESKGTVITPEIRKAVEEANSKPVEVIKPNGLSEKKPADLASLLLNSAGDAQGDEAPALKLGDASCAAPFTSKLANVSAVTNIIRQGRCALVNTIQMYKILALNCLISAYSLSIIYMAGVKFGDGQATVSGLLLSVCFLSISRGKPLEKLSKQRPQSGIFNVYIMGSILSQFAVHIATLVYITTEIYKLEPREPQVDLEKEFAPSLLNTGIFIIQLVQQVSTFAVNYQGEPFRENIRSNKGMYYGLLGVTGLALASATEFLPELNEAMKFVPMTDDFKIKLTLTLLLDFFGSWGVEHFFKFFFMDDKPSDISVQQVKIASK
notes: Spf1p, P5A-type ATPase of the endoplasmic reticulum, Saccharomyces cerevisiae, full length; The abstract speaks of a purified 'functional tagged version'; removal of the tag is not mentioned; also called full length Spf1p; full-length expression construct (Spf1p); not shown: FLAG, C-terminal, kept; RGS10His, C-terminal, kept

Experiments:
Spf1p = biological target: T1, Spf1p; experiment: ATPase assay, phosphate release (molybdate colorimetric); type: biochemical
From the text: ATPase assay, phosphate release (molybdate colorimetric) on Spf1p | Vanadate sensitivity of Spf1p in mixed YPL/OG micelles

[1] = biological target: the molecule itself; experiment: SDS-PAGE of the purified protein (band at twice the expected size); purified fractions run on SDS-PAGE gels, strongly denaturing conditions; bands of the full-length protein identified by mass spectrometry (S1 Fig)
[2] = substrate: Nc1ncnc2c1ncn2[C@@H]1O[C@H](COP(=O)(O)OP(=O)(O)OP(=O)(O)O)[C@@H](O)[C@H]1O; experiment: ATPase assay, phosphate release (molybdate colorimetric); type: biochemical, Saccharomyces cerevisiae; details: YPL/OG micelles (0.35% w/w OG); Mg2+; Michaelis-Menten fit
From the text: ATPase assay, phosphate release (molybdate colorimetric) on Spf1p | ATP affinity of Spf1p in YPL/OG micelles

| Molecule | Ki (Spf1p) | binding result [1] | Km [2] |
| --- | --- | --- | --- |
| [O]=[V]([OH])([OH])[OH] [vanadate] | 10.3 ± 0.747 µM | – | – |
| B1 | – | binds | 133.2 ± 18.9 µM |
